{"source": "patent US6380162B1", "about": "“Ice inhibiting peptides” (Applied Research Systems ARS Holding N.V., priority 1999, dated 2002)", "molecules": {"B1": {"name": "ICE (Interleukin-1β-Converting Enzyme), human (protein)", "chain": "MADKVLKEKRKLFIRSMGEGTINGLLDELLQTRVLNKEEMEKVKRENATVMDKTRALIDSVIPKGAQACQICITYICEEDSYLAGTLGLSADQTSGNYLNMQDSQGVLSSFPAPQAVQDNPAMPTSSGSEGNVKLCSLEEAQRIWKQKSAEIYPIMDKSSRTRLALIICNEEFDSIPRRTGAEVDITGMTMLLQNLGYSVDVKKNLTASDMTTELEAFAHRPEHKTSDSTFLVFMSHGIREGICGKKHSEQVPDILQLNAIFNMLNTKNCPSLKDKPKVIIIQACRGDSPGVVWFKDSVGVSGNLSLPTTEEFEDDAIKKAHIEKDFIAFCSSTPDNVSWRHPTMGSVFIGRLIEHMQEYACSCDVEEIFRKVRFSFEQPDGRAQMPTTERVTLTRCFYLFPGH"}}, "key": {"ICE": {"molecular_target": "T1, ICE (Homo sapiens, UniProt P29466)", "T1 sequence (P29466 120-404)": "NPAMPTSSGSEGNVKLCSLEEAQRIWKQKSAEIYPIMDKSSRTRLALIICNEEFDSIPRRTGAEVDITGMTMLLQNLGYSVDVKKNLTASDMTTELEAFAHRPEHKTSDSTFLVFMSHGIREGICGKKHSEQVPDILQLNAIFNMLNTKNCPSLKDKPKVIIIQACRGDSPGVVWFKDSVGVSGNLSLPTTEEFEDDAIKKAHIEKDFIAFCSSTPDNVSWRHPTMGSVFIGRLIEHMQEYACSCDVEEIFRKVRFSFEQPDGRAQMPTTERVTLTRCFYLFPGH", "test": "Inhibition of ICE cleavage of pIL-1β, SDS-PAGE and Western blotting", "format": "biochemical", "set-up": "expressed in transfected cells; host or cells: COS-7 cells transfected with pSG5-ICE cDNA, or alternatively lysate of freshly isolated human monocytes", "details": "pIL-1β 5 ng incubated with ICE; peptides 100, 300 or 1,000 μM; Western blotting", "method": "cDNA coding for human ICE has been amplified by PCR. The sequence was confirmed and the cDNA was subcloned into pSG5 expression vector. COS cells were transfected with empty vector (mock) or vector containing ICE cDNA and after 48 hours, cells were analysed for the expression of ICE specific mRNA.\nA monocyte lysate, prepared as previously described (11), was also able to convert pIL-1β into a mature form (FIG. 2). Therefore, recombinant ICE or freshly isolated human monocytes were used as a source of ICE enzymatic activity for further experiments.\nA source of ICE activity was prepared and its ability to cleave pIL-1β was tested by incubating the reaction at 37° C. for 1 hour. The mixture was then run on SDS-PAGE and the presence of pIL1-β or the mature form was evidenced by Western Blotting."}, "[1]": {"molecular_target": "Human recombinant IL-1β precursor, P01584", "sequence (P01584 whole entry, looked up)": "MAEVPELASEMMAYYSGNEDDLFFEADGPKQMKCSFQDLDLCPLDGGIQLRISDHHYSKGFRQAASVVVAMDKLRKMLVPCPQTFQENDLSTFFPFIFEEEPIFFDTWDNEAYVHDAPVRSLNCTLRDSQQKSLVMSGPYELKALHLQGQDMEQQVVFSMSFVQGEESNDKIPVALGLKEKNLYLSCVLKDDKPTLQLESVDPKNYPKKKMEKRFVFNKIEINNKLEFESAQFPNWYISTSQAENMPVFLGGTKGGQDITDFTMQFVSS"}}}
{"molecule": "peptide S: SEQ ID NO:5, identical to peptide C except for two Ala substituting the two Asp residues (MALAALYEEGGGGGGEGEDNAASK)", "values": [{"measurement": "inhibition of ICE activity (FIG. 6)", "setting": "ICE", "result": "inhibition of ICE activity"}]}
{"molecule": "peptide C: SEQ ID NO:4, designed on the basis of icIL-1raII sequence (MALADLYEEGGGGGGEGEDNADSK)", "values": [{"measurement": "inhibition of ICE activity (FIG. 6)", "setting": "ICE", "result": "inhibition of ICE activity"}]}
{"molecule": "B1", "values": [{"measurement": "conversion of pIL-1β into the mature form (Western blotting after 60 minutes at 37° C.)", "setting": "[1]", "result": "A monocyte lysate, prepared as previously described (11), was also able to convert pIL-1β into a mature form"}]}
